Data from patent US20190241662A1.
Where two headings read alike, the source gives them in different places.

Tests used:
[1] = target: full-length human CTLA4 expressed on cells (human) (UniProt P16410); test: flow cytometry, activated human CD4+ T cells, APC-labelled antibody; lower right quadrant 0%
[2] = target: full-length mouse CTLA4 expressed on HEK293F cells (mouse) (UniProt P09793); test: flow cytometry, transfected HEK293F cells, antibody concentration not printed [Cont.]
[3] = target: CTLA4 on activated mouse T cells (mouse) (UniProt P09793); test: flow cytometry, activated mouse CD4+ T cells, APC-labelled antibody; lower right quadrant 0.043%
Sequence of CTLA4 on activated mouse T cells (mouse) (P09793 36-223 limits assumed): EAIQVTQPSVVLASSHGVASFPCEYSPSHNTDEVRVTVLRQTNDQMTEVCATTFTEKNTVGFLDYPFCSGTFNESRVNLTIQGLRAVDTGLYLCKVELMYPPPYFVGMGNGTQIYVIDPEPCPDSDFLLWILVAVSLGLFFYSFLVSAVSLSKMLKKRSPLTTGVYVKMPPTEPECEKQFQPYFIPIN

[4] = target: CTLA4 on activated monkey T cells; test: flow cytometry, activated monkey CD4+ T cells, APC-labelled antibody; lower right quadrant […]
Sequence of CTLA4 on activated monkey T cells (chain, as listed by the source limits assumed): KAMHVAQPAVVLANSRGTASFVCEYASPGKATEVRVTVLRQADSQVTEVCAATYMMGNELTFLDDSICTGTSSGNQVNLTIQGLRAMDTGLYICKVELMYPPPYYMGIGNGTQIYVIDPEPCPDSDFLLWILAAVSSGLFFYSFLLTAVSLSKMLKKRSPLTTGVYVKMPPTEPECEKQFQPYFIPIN

[5] = target: human Tim3 on HEK293F cells (human) (UniProt Q8TDQ0); test: flow cytometry, transfected HEK293F cells, 100 nM antibody [Cont.]
Sequence of human Tim3 on HEK293F cells (human) (Q8TDQ0 22-301): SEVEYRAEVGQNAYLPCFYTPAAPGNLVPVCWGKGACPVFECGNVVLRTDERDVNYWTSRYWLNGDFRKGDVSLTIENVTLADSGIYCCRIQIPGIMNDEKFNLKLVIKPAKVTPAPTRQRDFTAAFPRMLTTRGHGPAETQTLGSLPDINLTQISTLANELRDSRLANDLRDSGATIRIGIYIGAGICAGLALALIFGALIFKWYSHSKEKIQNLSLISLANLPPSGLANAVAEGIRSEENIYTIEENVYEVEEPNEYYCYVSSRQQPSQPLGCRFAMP

[6] = target: human B7H3 on HEK293F cells (human) (UniProt Q5ZPR3); test: as above
Sequence of human B7H3 on HEK293F cells (human) (Q5ZPR3 29-534): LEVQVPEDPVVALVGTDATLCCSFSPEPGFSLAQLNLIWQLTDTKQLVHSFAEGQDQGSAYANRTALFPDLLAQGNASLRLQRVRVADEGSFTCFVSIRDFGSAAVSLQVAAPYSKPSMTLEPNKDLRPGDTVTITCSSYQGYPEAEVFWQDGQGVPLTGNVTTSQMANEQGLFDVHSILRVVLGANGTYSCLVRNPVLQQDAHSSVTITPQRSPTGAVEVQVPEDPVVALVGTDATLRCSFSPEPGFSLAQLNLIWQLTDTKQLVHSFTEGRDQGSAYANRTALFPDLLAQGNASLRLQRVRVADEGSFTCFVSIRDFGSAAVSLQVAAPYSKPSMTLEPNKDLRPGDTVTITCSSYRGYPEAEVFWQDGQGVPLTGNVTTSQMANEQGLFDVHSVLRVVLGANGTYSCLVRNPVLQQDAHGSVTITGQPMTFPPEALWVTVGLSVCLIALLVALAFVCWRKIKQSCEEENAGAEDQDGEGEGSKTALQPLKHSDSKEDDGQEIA

[7] = target: human PD-L1 on HEK293F cells (human) (UniProt Q9NZQ7); test: flow cytometry, transfected HEK293F cells, 100 nM antibody
Sequence of human PD-L1 on HEK293F cells (human) (Q9NZQ7 19-290): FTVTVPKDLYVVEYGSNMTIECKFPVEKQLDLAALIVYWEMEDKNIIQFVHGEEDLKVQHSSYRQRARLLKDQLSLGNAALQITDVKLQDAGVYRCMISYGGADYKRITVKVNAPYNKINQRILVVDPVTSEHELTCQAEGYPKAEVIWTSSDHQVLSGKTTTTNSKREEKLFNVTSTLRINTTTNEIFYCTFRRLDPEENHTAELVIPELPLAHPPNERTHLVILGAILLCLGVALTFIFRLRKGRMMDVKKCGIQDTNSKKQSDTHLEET

[8] = target: human Tim3 on HEK293F cells (human) (UniProt Q8TDQ0); test: as above
[9] = target: human LAG3 on HEK293F cells (human) (UniProt P18627); test: as above
Sequence of human LAG3 on HEK293F cells (human) (P18627 23-525): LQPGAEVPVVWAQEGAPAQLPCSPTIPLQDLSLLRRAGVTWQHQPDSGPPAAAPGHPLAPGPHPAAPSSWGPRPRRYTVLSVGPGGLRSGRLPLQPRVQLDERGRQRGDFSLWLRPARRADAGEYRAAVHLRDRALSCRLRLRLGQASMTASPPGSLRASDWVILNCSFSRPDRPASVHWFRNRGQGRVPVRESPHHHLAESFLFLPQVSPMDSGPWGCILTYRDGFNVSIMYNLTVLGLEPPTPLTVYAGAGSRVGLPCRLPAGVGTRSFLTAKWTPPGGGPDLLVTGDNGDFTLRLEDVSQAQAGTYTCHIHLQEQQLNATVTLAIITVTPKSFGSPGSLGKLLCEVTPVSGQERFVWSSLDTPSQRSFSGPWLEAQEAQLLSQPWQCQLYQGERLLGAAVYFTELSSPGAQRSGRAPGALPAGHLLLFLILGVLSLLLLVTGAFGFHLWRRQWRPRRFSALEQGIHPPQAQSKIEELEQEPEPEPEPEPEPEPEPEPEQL

[10] = target: full-length human CTLA4 expressed on cells (human) (UniProt P16410); test: as above
[11] = target: human PD1 on HEK293F cells (human) (UniProt Q15116); test: as above
Sequence of human PD1 on HEK293F cells (human) (Q15116 25-288): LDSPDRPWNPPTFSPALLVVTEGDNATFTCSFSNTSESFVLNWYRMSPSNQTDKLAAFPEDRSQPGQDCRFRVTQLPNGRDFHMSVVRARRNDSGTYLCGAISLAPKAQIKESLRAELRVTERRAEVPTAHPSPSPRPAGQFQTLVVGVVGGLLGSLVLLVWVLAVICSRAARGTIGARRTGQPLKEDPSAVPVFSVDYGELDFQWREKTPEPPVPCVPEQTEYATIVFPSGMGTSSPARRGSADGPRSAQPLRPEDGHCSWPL

[12] = target: human LAG3 on HEK293F cells (human) (UniProt P18627); test: as above; remark: listed apart in the source
[13] = target: full-length human CTLA4 expressed on cells (human) (UniProt P16410); test: as above; remark: listed apart in the source

Sequence of full-length human CTLA4 expressed on cells (human) (P16410 36-223): as the sequence (chain, as listed by the source limits assumed) above, with N14S, T18I, M106L counted along it
Sequence of full-length mouse CTLA4 expressed on HEK293F cells (mouse) (P09793 36-223): as the sequence (P09793 36-223 limits assumed) above

A % of cells in upper right quadrant (APC-positive) [1] of 0.034%, a % of cells in upper right quadrant (Q2) [2] of 0.23 and a Mean [2] of 3700 were found for isotype control antibody (human IgG1) in this work. It also gave a % of cells in upper right quadrant (APC-positive) [3] of 1.98%, a % of cells in upper right quadrant (APC-positive) [4] of 6.27% and a % of cells in upper right quadrant (Q2) [5] of 1.06%. The % of cells in upper right quadrant (Q2) [6] was 1.72%, the % of cells in upper right quadrant (Q2) [7] was 0.27% and the Mean [7] was 36300. It also gave a % of cells in upper right quadrant (Q2) [8] of 0.055%, a Mean [8] of 3200 and a % of cells in upper right quadrant (Q2) [9] of 0.17%. For the same substance, the Mean [9] was 3550, the % of cells in upper right quadrant (Q2) [10] was 0.45% and the Mean [10] was 48000. It also gave a % of cells in upper right quadrant (Q2) [11] of 0.99%, a % of cells in upper right quadrant (Q2) [12] of 2.1% and a % of cells in upper right quadrant (Q2) [13] of 1.79%.
